Data set [1] deals with 32P-labeled mtRNAP (Figure 5C; truncation not stated) (human) (UniProt O00411). In words: cross-linking.
The target in data set [2] is 610Bpa-mtRNAP (human) (UniProt O00411). In words: cross-linking.
Data set [3] concerns the molecule itself. In words: SEC.
For data set [4], the target named is mtRNAP Δ150;TEFM Δ135 (CTD + linker) (human;human, UniProt O00411;Q96QE5 151-1230;136-360, |). Nature of the data set: crystal structure.
The target in data set [5] is Δ150 mtRNAP (human mitochondrial RNA polymerase) (human, UniProt O00411 151-1230). Nature of the data set: crystal structure.
Data set [6] deals with the molecule itself. In words: crystal structure.
The target in data set [7] is mtRNAP Δ150;TEFM WT (human;human, UniProt O00411;Q96QE5 151-1230;36-360, |). In words: size exclusion chromatography.

In general, stoichiometry N refers to the number of molecules, sites or subunits per partner or assembly.

Sequence of 32P-labeled mtRNAP (Figure 5C; truncation not stated) (human) (O00411 42-1230): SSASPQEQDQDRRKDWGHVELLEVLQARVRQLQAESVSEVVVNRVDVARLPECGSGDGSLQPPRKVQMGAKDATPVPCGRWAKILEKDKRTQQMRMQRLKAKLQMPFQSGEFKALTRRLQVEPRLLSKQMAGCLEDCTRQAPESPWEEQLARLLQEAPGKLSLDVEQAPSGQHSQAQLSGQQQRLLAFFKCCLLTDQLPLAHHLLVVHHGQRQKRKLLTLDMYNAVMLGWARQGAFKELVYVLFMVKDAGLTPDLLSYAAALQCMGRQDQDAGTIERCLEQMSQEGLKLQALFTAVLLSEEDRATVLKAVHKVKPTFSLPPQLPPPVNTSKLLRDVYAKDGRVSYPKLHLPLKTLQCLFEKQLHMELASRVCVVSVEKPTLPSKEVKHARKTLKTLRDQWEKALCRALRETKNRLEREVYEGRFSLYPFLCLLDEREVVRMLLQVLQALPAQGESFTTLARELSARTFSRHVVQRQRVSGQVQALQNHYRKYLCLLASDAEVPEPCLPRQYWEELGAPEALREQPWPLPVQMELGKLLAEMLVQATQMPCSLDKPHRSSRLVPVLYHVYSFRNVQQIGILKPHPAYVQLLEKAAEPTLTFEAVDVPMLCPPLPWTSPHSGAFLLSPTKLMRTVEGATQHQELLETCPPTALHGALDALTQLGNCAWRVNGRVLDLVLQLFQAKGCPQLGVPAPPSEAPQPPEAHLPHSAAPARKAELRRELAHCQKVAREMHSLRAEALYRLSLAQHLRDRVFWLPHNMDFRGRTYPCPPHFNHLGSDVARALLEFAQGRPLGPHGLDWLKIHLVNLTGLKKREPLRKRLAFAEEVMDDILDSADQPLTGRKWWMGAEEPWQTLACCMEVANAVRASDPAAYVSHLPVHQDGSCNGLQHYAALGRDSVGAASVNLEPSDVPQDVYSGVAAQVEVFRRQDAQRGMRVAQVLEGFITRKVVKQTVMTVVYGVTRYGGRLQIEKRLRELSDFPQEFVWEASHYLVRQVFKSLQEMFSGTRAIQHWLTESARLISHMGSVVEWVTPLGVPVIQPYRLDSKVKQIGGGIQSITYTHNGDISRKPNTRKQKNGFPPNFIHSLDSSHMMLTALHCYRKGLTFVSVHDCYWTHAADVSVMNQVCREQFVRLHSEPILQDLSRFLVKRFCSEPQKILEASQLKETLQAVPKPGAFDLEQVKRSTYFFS
Sequence of 610Bpa-mtRNAP (human) (O00411 42-609): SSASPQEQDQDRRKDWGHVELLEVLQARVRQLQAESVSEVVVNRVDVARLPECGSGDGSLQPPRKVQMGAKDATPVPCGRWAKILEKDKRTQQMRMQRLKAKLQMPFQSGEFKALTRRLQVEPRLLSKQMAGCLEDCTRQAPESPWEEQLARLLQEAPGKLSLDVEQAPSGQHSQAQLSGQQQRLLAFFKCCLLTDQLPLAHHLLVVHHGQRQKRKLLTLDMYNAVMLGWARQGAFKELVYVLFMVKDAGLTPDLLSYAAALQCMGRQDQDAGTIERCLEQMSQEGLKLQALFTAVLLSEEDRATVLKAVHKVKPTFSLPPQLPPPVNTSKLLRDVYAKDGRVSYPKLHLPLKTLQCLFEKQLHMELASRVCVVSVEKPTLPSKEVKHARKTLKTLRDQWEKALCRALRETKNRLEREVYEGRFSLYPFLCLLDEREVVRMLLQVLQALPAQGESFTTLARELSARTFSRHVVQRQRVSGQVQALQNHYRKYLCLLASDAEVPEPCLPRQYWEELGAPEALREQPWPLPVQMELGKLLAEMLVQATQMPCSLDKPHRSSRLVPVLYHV
Sequence of mtRNAP Δ150;TEFM Δ135 (CTD + linker) (O00411 151-1230, stated change not applied, one chain of several): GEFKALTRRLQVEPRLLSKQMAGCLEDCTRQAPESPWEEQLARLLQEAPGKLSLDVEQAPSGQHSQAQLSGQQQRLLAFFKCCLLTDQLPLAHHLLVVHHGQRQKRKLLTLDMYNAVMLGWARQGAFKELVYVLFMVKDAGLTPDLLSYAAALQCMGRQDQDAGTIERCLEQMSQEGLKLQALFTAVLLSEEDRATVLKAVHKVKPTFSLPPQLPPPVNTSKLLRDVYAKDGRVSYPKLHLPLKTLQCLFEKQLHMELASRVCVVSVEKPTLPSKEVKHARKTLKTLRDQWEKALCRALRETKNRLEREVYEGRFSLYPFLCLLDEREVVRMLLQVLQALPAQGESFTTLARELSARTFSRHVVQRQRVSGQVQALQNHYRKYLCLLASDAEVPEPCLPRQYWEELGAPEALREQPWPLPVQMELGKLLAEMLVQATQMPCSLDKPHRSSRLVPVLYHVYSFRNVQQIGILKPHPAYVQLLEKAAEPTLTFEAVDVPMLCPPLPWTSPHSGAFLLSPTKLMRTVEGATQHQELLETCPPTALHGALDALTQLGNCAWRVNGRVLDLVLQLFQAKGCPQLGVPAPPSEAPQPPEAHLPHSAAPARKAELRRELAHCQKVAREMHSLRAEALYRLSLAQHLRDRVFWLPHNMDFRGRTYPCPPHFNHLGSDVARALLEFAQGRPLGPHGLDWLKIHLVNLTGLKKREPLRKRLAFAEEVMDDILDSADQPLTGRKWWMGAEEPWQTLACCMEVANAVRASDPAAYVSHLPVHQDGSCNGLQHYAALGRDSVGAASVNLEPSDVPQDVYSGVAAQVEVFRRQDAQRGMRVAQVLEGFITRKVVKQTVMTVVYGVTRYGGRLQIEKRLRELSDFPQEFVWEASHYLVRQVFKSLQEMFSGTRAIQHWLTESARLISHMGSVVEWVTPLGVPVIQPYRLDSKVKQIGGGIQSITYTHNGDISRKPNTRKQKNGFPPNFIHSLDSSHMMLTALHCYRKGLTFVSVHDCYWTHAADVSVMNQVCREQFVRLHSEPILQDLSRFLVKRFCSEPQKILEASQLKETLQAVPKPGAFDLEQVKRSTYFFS
Sequence of Δ150 mtRNAP (human mitochondrial RNA polymerase) (O00411 151-1230, stated change not applied): as the sequence (O00411 151-1230, stated change not applied, one chain of several) above
Sequence of mtRNAP Δ150;TEFM WT (O00411 151-1230, stated change not applied, one chain of several): as above

“Bpa308 TEFM (from UniProt Q96QE5 36-360) (natural protein)” displayed a cross-linking efficiency in data set [1] of over 30%.
In turn, “Bpa310 TEFM (from UniProt Q96QE5 36-360) (natural protein)” registered a cross-linking efficiency in data set [1] of over 30%.
The same measure, in the same setting: the same measure for “Bpa312 TEFM (from UniProt Q96QE5 36-360) (natural protein)”: over 30%; for “Bpa309 TEFM (from UniProt Q96QE5 36-360) (natural protein)”: over 30%.

B1: 32P-labeled TEFM (natural protein)
chain: KSTTPKKITPNVTFCDENAKEPENALDKLFSSEQQASILHVLNTASTKELEAFRLLRGRRSINIVEHRENFGPFQNLESLMNVPLFKYKSTVQVCNSILCPKTGREKRKSPENRFLRKLLKPDIERERLKAVNSIISIVFGTRRIAWAHLDRKLTVLDWQQSDRWSLMRGIYSSSVYLEEISSIISKMPKADFYVLEKTGLSIQNSSLFPILLHFHIMEAMLYALLNKTFAQDGQHQVLSMNRNAVGKHFELMIGDSRTSGKELVKQFLFDSILKADPRVFFPSDKIVHYRQMFLSTELQRVEELYDSLLQAIAFYELAVFDSQP
modifications: 32P-labeled
In data set [2], B1 showed a cross-linking efficiency of 30%.

B2: WT TEFM (human mitochondrial transcription elongation factor) (natural protein, UniProt Q96QE5 36-360, looked up)
chain: KSTTPKKITPNVTFCDENAKEPENALDKLFSSEQQASILHVLNTASTKELEAFRLLRGRRSINIVEHRENFGPFQNLESLMNVPLFKYKSTVQVCNSILCPKTGREKRKSPENRFLRKLLKPDIERERLKAVNSIISIVFGTRRIAWAHLDRKLTVLDWQQSDRWSLMRGIYSSSVYLEEISSIISKMPKADFYVLEKTGLSIQNSSLFPILLHFHIMEAMLYALLNKTFAQDGQHQVLSMNRNAVGKHFELMIGDSRTSGKELVKQFLFDSILKADPRVFFPSDKIVHYRQMFLSTELQRVEELYDSLLQAIAFYELAVFDSQP
B2: in data set [3], the “stoichiometry N” value stood at 2.

B3: EC scaffold NT25HH/TS22HH/RNA14mt (mixed)
DNA 1: GAACATGGTGTAATTATTTCGACGCCAGACGAAC
DNA 2: GTTCGTCTGGCGTGCGCGCCGCTACACCATGTTC
RNA: AGUCUGCGGCGCGC
Turning to B3, the binding result in data set [4] is “binds”.

B4: Δ135 TEFM (CTD with the inter-domain linker, residues 136-360) (domain or fragment, human, UniProt Q96QE5 136-360, looked up)
chain: PKTGREKRKSPENRFLRKLLKPDIERERLKAVNSIISIVFGTRRIAWAHLDRKLTVLDWQQSDRWSLMRGIYSSSVYLEEISSIISKMPKADFYVLEKTGLSIQNSSLFPILLHFHIMEAMLYALLNKTFAQDGQHQVLSMNRNAVGKHFELMIGDSRTSGKELVKQFLFDSILKADPRVFFPSDKIVHYRQMFLSTELQRVEELYDSLLQAIAFYELAVFDSQP
B4: the binding result in data set [5] and in data set [6] was “binds” each time.

B5: cross-linking scaffold NT19HH/TS16HH/RNA14HH (mixed)
DNA 1: CATGGGGTAACTAGTTCGACGCCAGACG
DNA 2: CGTCTGGCGTGATCACGACTACCCCATG
RNA: UGAUGGUAAUGCUCCUGUCGUGAUC
Turning to B5, in data set [7], the binding result is given as “binds”.
